Assay results from PMC2121072 (The Journal of Cell Biology, 1996).
“And” between values parts separate entries of the source, which are not always exact repeats. Identical values can stand only once. Like-named read-outs stand apart in the source and are kept apart here. Where no end group is shown, it is not given here. The star is where a group is joined. Biotin = O=C1N[C@H]2[C@H](CS[C@H]2CCCCC(=O)*)N1

Key:
[1] = target: T1, GST-PDZ1+2+3 fusion protein of hDlg (human, UniProt Q12959 201-584); assay: SPR
T1 sequence (Q12959 201-584): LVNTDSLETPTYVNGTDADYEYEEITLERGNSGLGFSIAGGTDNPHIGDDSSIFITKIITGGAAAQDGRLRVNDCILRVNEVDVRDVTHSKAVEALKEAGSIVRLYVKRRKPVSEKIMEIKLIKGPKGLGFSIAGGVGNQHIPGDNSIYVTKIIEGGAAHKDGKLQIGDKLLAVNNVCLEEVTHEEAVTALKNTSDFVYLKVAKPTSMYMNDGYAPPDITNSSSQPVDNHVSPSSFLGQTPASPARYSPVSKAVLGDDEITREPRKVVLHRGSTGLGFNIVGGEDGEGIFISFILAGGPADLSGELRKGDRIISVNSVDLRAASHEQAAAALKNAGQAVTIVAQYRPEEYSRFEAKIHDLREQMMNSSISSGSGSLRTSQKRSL

[2] = target: T1, GST-PDZ1+2+3 fusion protein of hDlg; assay: SPR; remark: listed apart in the source
[3] = target: PDZ1+2 (A) module of hDlg (human, UniProt Q12959 205-411); assay: SPR
Chain of PDZ1+2 (A) module of hDlg (Q12959 205-411): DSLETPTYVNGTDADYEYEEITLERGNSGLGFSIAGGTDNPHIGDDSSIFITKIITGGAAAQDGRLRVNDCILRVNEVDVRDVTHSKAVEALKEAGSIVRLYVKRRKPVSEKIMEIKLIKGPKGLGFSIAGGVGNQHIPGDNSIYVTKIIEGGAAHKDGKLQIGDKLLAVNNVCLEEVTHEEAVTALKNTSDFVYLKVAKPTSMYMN

[4] = target: the molecule itself; assay: SEC

B1: biotinylated synthetic peptide of the COOH terminus of the Kv1.4 potassium channel (peptide)
peptide: Biotin-SGSGDKNNCSNAKAVETDV
**Q.** Which Kd [1] does the source give for B1 here?
**A.** Its Kd is 0.16 µM.

**Q.** What about the koff [1] of the same binder?
**A.** Its koff is 0.024 s⁻¹.

**Q.** What about the kon [1] of the same binder?
**A.** Its kon is 150000 M⁻¹ s⁻¹.

**Q.** And the Kd [2]?
**A.** Its Kd is 0.011 µM.

**Q.** And the koff [2]?
**A.** Its koff is 0.002 s⁻¹.

**Q.** What about the kon [2] of the same binder?
**A.** The kon was 180000 M⁻¹ s⁻¹.

**Q.** And the Kd [3]?
**A.** The Kd was 0.033 ± 0.005 µM.

**Q.** And the koff [3]?
**A.** The koff was 0.0149 s⁻¹ and 0.0135 s⁻¹.

**Q.** What about the kon [3] of the same binder?
**A.** Its kon is 413000 M⁻¹ s⁻¹.

B2: PDZ3 (A) domain of hDlg (domain or fragment, human, UniProt Q12959 457-558, looked up)
chain: DDEITREPRKVVLHRGSTGLGFNIVGGEDGEGIFISFILAGGPADLSGELRKGDRIISVNSVDLRAASHEQAAAALKNAGQAVTIVAQYRPEEYSRFEAKIH
**Q.** B2 was tested. Which “stoichiometry N” value [4] did it give?
**A.** Its value is 2.
